Reference: US20200283521A1 (GRANULAR THERAPEUTICS, published 2020)
Like-named read-outs stand apart in the source and are kept apart here. Each block holds one binder with its values, some of them ahead of it.

Experiments:
human C-KIT-Fc [1] = biological target: T1, human C-KIT-Fc (human, UniProt P10721 26-524); assay: direct ELISA at 1 µg/ml
T1 construct: also called biotinylated human C-KIT-Fc; not shown: Fc part not described

human C-KIT-Fc [2] = biological target: T1, human C-KIT-Fc; assay: HTRF competition vs Tb-h37M IgG1
human C-KIT-Fc [3] = biological target: T1, human C-KIT-Fc; assay: direct titration ELISA on coated C-KIT-Fc, IgG1 format
[4] = biological target: T2, human C-KIT, full length, on cells (human, UniProt P10721 26-976); assay: flow cytometry, C-KIT-transfected CHO-K1 cells, IgG1 format
T2 construct: full-length cDNA stably transfected in CHO-K1; also used here for endogenous C-KIT of TF-1 cells; also called human C-KIT+ CHO-K1 cells; C-KIT on TF-1 cells

F13A1 = biological target: T3, F13A1 (human, UniProt P00488 39-732); assay: cell array, HEK293 re-array slides
T3 construct: whole, on cells
T3 sequence (looked up): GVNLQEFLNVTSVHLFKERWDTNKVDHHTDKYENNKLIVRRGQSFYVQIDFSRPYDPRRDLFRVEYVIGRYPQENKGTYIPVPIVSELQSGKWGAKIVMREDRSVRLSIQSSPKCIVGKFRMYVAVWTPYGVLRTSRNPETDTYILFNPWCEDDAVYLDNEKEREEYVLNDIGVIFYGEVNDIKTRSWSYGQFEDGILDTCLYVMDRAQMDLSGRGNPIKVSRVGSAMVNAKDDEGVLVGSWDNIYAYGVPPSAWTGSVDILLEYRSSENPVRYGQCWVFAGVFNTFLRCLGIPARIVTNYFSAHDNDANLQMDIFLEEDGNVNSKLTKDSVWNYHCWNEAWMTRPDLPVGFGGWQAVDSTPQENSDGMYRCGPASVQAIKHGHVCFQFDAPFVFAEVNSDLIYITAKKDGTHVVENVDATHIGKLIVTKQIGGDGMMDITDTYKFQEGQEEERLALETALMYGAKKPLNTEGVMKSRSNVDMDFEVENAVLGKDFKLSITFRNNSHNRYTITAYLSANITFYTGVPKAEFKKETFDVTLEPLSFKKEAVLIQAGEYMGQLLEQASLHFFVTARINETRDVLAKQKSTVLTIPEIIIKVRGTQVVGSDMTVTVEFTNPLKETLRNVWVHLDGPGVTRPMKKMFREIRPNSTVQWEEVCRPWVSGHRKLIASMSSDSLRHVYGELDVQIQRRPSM

CRIM1 = biological target: T4, CRIM1 (human, UniProt Q9NZV1 35-1036); assay: cell array, HEK293 re-array slides
T4 construct: whole, on cells
T4 sequence (looked up): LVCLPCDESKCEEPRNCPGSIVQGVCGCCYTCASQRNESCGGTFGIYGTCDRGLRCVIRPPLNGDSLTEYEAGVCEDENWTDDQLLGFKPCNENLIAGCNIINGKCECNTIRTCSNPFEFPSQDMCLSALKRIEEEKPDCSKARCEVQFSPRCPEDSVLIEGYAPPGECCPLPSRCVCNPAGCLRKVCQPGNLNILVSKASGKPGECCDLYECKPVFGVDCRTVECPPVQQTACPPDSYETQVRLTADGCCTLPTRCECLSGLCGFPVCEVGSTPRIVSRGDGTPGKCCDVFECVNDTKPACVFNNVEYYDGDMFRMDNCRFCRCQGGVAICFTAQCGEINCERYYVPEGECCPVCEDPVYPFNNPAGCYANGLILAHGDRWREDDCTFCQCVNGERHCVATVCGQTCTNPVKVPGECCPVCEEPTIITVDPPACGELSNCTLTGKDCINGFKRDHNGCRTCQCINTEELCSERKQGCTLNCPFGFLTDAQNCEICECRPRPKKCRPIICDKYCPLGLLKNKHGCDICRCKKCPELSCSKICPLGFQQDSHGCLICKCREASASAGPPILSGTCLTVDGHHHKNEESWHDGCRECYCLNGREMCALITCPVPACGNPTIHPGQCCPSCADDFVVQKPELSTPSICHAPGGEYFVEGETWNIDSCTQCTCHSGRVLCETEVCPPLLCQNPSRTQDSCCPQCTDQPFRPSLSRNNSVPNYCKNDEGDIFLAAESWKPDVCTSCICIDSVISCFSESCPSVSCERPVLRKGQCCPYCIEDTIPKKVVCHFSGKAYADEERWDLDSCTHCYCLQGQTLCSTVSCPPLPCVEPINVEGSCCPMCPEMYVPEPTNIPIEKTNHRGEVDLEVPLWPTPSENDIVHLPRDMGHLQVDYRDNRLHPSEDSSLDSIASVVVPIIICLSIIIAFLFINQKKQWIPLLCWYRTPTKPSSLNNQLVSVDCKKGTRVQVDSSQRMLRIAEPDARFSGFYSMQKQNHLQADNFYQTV

MMP7 = biological target: T5, MMP7 (human, UniProt P09237 95-267); assay: cell array, HEK293 re-array slides
T5 construct: whole, on cells
T5 sequence (looked up): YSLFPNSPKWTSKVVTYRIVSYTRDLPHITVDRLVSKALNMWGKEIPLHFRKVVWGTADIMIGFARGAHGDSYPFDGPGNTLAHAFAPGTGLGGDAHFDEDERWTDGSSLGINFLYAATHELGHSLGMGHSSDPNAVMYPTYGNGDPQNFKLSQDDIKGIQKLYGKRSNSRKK

human C-KIT-Fc [5] = biological target: T1, human C-KIT-Fc; assay: HTRF competition vs Tb-h37M IgG1; remark: listed apart in the source
human C-KIT-Fc [6] = biological target: T1, human C-KIT-Fc; assay: direct titration ELISA on coated C-KIT-Fc, IgG1 format; remark: listed apart in the source
[7] = biological target: T6, cynomolgus monkey C-KIT-Fc (cynomolgus monkey); assay: direct ELISA at 1 µg/ml
T6 construct: also called cyno C-KIT-Fc

[8] = biological target: T7, cynomolgus monkey C-KIT, full length, on CHO-K1 cells (cynomolgus monkey); assay: flow cytometry, C-KIT-transfected CHO-K1 cells, IgG1 format
T7 construct: whole, on cells; also called cyno C-KIT+ CHO-K1 cells

[9] = biological target: T6, cynomolgus monkey C-KIT-Fc; assay: HTRF competition vs Tb-h37M IgG1
hBAFFR-Fc = biological target: T8, hBAFFR-Fc (human, UniProt Q96RJ3); assay: direct ELISA on coated protein, IgG1
T8 construct: Fc fusion; member of the panel m9
T8 sequence (Q96RJ3 7-71 limits assumed): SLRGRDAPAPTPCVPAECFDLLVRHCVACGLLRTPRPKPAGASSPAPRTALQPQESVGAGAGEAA

B1: humanized h37M, human IgG1 (antibody, V domains shown)
VH: QVQLVQSGAEVKKPGASVKLSCKASGYTFTDYYINWVRQAPGKGLEWIARIYPGSGNTYYNEKFKGRATLTADKSTSTAYMQLSSLRSEDTAVYFCARGVYYFDYWGQGTTVTVSS
VL: DIVMTQSPSSLSASVGDRVTITCKASQNVRTNVAWYQQKPGKAPKALIYSASYRYSGVPDRFTGSGSGTDFTLTISSLQPEDFADYFCQQYNSYPRTFGGGTKVEIK
notes: human IgG1; terbium-labelled as the tracer of the HTRF assays; also called C-KIT-h37M; h37M-IgG1
OD450 nm (human C-KIT-Fc [1]): > 1.8 OD450 nm | IC50 (human C-KIT-Fc [2]): 0.016 µg/mL | EC50 (read off the curve) (human C-KIT-Fc [3]): ~0.1 µg/mL | EC50 (read off the curve) [4]: ~0.2 µg/mL | binding result (F13A1): no binding (tested: 0.5 and 2 µg/ml) | binding result (CRIM1): no binding (tested: 0.5 and 2 µg/ml) | binding result (MMP7): no binding (tested: 0.5 and 2 µg/ml) | IC50 (human C-KIT-Fc [5]): 0.025 µg/mL | EC50 (read off the curve) (human C-KIT-Fc [6]): ~0.2 µg/mL

B4: MH5.22 (antibody, IgG1, V domains shown)
VH: QVQLVQSGAEVKKPGASVKVSCKASGYTFTDFYMNWVRQAPGQGLEWMGRIYPASGNTYYAQKFQGRVTMTRDTSTSTVYMELSSLRSEDTAVYYCARGVWYYDYWGQGTLVTVSS
VL: DIQMTQSPSSLSASVGDRVTITCRASQGIRTNLAWFQQKPGKAPKSLIYAASSLQSGVPSRFSGSGSGTDFTLTISSLQPEDFATYYCQQYANYPRTFGGGTKVEIK
notes: IgG1; also called C-KIT-MH5.22
OD450 nm [7]: > 2 OD450 nm | OD450 nm (human C-KIT-Fc [1]): > 1.8 OD450 nm | EC50 (read off the curve) [8]: ~0.4 µg/mL | IC50 [9]: 0.164 µg/mL | IC50 (human C-KIT-Fc [2]): 0.134 µg/mL | EC50 (read off the curve) [4]: ~0.4 µg/mL | binding result (hBAFFR-Fc): no binding (tested: 1 µg/ml)

More lines, now with the values ahead:

OD450 nm [7]: > 2 OD450 nm | OD450 nm (human C-KIT-Fc [1]): > 1.8 OD450 nm | EC50 (read off the curve) [8]: ~0.5 µg/mL | IC50 [9]: 0.058 µg/mL | IC50 (human C-KIT-Fc [2]): 0.067 µg/mL | EC50 (read off the curve) (human C-KIT-Fc [3]): ~0.1 µg/mL | EC50 (read off the curve) [4]: ~0.3 µg/mL | IC50 (human C-KIT-Fc [5]): 0.063 µg/mL | EC50 (read off the curve) (human C-KIT-Fc [6]): ~0.1 µg/mL
B2: MH5, human IgG1 (antibody, V domains shown)
VH: QVQLVQSGAEVKKPGASVKVSCKASGYTFTDYYMNWVRQAPGQGLEWMGRIYPGSGNTYYAQKFQGRVTMTRDTSTSTVYMELSSLRSEDTAVYYCARGVYYYDYWGQGTLVTVSS
VL: DIQMTQSPSSLSASVGDRVTITCRASQGIRTNLAWFQQKPGKAPKSLIYSASSLQSGVPSRFSGSGSGTDFTLTISSLQPEDFATYYCQQYANYPRTFGGGTKVEIK
notes: IgG1; also called C-KIT-MH5; C-KIT-MHS

OD450 nm [7]: > 2 OD450 nm | OD450 nm (human C-KIT-Fc [1]): > 1.8 OD450 nm | binding result (F13A1): no binding (tested: 0.5 and 2 µg/ml) | binding result (CRIM1): no binding (tested: 0.5 and 2 µg/ml) | binding result (MMP7): no binding (tested: 0.5 and 2 µg/ml) | EC50 (read off the curve) (human C-KIT-Fc [6]): ~0.1 µg/mL
B3: MH1, human IgG1 (antibody, V domains shown)
VH: QVQLVQSGAEVKKPGASVKVSCKASGYTFTDYYMNWVRQAPGQGLEWMGRIYPGSGNTYYAQKFQGRVTMTRDTSTSTVYMELSSLRSEDTAVYYCARGVYYYDYWGQGTLVTVSS
VL: DIQMTQSPSSLSASVGDRVTITCRASQGIRTNLAWFQQKPGKAPKSLIYAASSLQSGVPSRFSGSGSGTDFTLTISSLQPEDFATYYCQQYNSYPRTFGGGTKVEIK
notes: IgG1; also called IgG1-MH1
